Source: patent US20260207669A1 (TIANJIN MEDICAL UNIVERSITY GENERAL HOSPITAL, published 2026)

T1: human BAFFR overexpressed on 293T cells (human, UniProt Q96RJ3 1-184)
T1 construct: whole, on cells
T1 sequence (looked up): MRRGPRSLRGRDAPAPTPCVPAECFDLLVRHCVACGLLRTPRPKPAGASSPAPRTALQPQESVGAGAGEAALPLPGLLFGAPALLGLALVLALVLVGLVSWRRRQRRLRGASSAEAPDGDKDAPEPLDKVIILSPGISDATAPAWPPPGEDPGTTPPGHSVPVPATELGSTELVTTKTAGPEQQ

B1: NB467-7 (Fc fusion)
chain: QVQLVESGGGSVHPGGSLRLSCAGSGFTLAGYAIGWFRQAPGKEREGVSCINSSGGSTYYADSVKGRFTISRDNAKNTVYLQMNSLKPEDTAVYYCAADVYYSGSYLYRSCNPTESKYWGQGTQVTVSS
notes: also called anti-BAFFR nanobody NB467-7; antibody NB467-7; not shown: Human IgG1 Fc fused to the VHH
B2: NB467-71 (Fc fusion)
chain: EVQVVESGGGLVQSGGSLRLSCVASGFNLDHYAIGWFRQIPGKEREGVSCISSGGDSTFYIDSVKGRFTISRDNAKNTVYLQMNSLKPEDTAVYHCAADVYYSGNYLYRSCNPHESKYWGQGTQVTVSS
notes: also called anti-BAFFR nanobody NB467-71; antibody NB467-71; not shown: Human IgG1 Fc fused to the VHH
B3: NB467-88 (Fc fusion)
chain: EVQVVESGGGLVQPGGSLRLSCAASGFRLNYYAIGWFRQAPGKEREGVSCISSGGDRIYYADSVKGRFTISRDNAKNTVYLQMNSLKPEDTAVYYCAADLYYSGSYYYRSCNPAESGYWGQGTQVTVSS
notes: also called anti-BAFFR nanobody NB467-88; antibody NB467-88; not shown: Human IgG1 Fc fused to the VHH

Target: T1, human BAFFR overexpressed on 293T cells
Experiment: flow cytometry on HEK-293T-BAFFR cells, anti-human Fc-647 secondary antibody
Method: The cells were resuspended in a suitable volume of staining solution for flow cytometry, so that the final cell concentration per tube reached 2×10⁵ cells/mL.
The antibodies NB467-7, NB467-71, and NB467-88 produced in Example 1 and the control antibody were diluted to 200 nM, respectively. […] After incubation, the cells were washed once with a FACS buffer.
The anti-human FC-647 secondary antibody (Jackson, 109-605-003) was diluted according to the instructions, and 100 μL of the diluted secondary antibody was added to a sample tube. After uniform mixing, the system was incubated at 4° C. for 60 min. After incubation, the cells were washed 3 times with FACS, and the cell precipitate obtained by centrifugation was resuspended in 200 μL of PBS and detected by flow cytometry (Sony, SA3800).

Binder | EC50
B1 | 6.73 nM
B2 | 10.6 nM
B3 | 1.31 nM
